Source: paper PMC3936717 (Nucleic Acids Research, 2013)

Target: the molecule itself
Assay: crystal structure

B1: P2 Cox protein of bacteriophage P2 (natural protein, UniProt P07695 1-91, looked up)
chain: MSKQVTLMTDAIPYQEFAKLIGKSTGAVRRMIDKGKLPVIDMTDPQSASGRAGEYWVYLPAWNNGLKLAYESRPKEIRDGWLMWLGLGEPR
B1: binds.
